Assay results taken from PMC6249844 (Molecular Biology of the Cell, 2018).

B1: GFP-tagged SNX-BAR complex (Vps5-Vps17 heterodimer with Vps17-GFP) (complex)
chain 1: MDYEDNLEAPVWDELNHEGDKTQSLVSNSIESIGQISTNEERKDNELLETTASFADKIDLDSAPEWKDPGLSVAGNPQLEEHDNSKADDLINSLAPEQDPIADLKNSTTQFIATRESGGALFTGNANSPLVFDDTIYDANTSPNTSKSISGRRSGKPRILFDSARAQRNSKRNHSLKAKRTTASDDTIKTPFTDPLKKAEKENEFVEEPLDDRNERRENNEGKFTASVEKNILEQVDRPLYNLPQTGANISSPAEVEENSEKFGKTKIGSKVPPTEKAVAFKVEVKDPVKVGELTSIHVEYTVISESSLLELKYAQVSRRYRDFRWLYRQLQNNHWGKVIPPPPEKQSVGSFKENFIENRRFQMESMLKKICQDPVLQKDKDFLLFLTSDDFSSESKKRAFLTGSGAINDSNDLSEVRISEIQLLGAEDAAEVLKNGGIDAESHKGFMSISFSSLPKYNEADEFFIEKKQKIDELEDNLKKLSKSLEMVDTSRNTLAASTEEFSSMVETLASLNVSEPNSELLNNFADVHKSIKSSLERSSLQETLTMGVMLDDYIRSLASVKAIFNQRSKLGYFLVVIENDMNKKHSQLGKLGQNIHSEKFREMRKEFQTLERRYNLTKKQWQAVGDKIKDEFQGFSTDKIREFRNGMEISLEAAIESQKECIELWETFYQTNL
chain 2: MTSAVPYDPYDDLDNNPFAEPQEEDSEPAATTTDGSSSMSEERVGTEQTAASVQDNGTANNIQNGLGEEGNATRSKTSNEHNENQQPSQPSERVILPERSDEKKKYTLLAKVTGLERFGSATGKKENPTIIFDCSTNLPTFRKQQYKNVKKSYEEFHQLFKYLNVAIQESFVPTLPSAYTTFGINSEEDRMKVTRNFQLWFNRLSQDPLIIRNEEVAFFIESDFNTYTPINKSKSLASGLKRKTLKQLAPPYDEITELAEFRPLVKSIYVVSQSLQEKLLRVSRNRKMMVQEENAFGQDFVNLDEHNKLYRRYGKILTAVGDIDSIIATMDMATLYDGLEWIVRDAYAVKEALTNRHFIMRNLVQAQQNSKAKQEQARRFRSRRDINPMKIDEALRQLKAAAKNEQVLTLKLQRITSNMIIERKQWISWYEEWIRSSIKEFTLRKIEYERKKLTLLERVRSDIRKADENGGLSRLGRHAVSNNNSDTSQTLKGDSWTGESNRKSQIPINKIAHTEFDDELFTEDDGYNSQDSDTTSLNARHAASLLGMSTK
B2: SNX-BAR complex without GFP tag (Vps5-Vps17 heterodimer) (complex)
chain 1: B1 chain 1
chain 2: B1 chain 2
B3: Snx3-mGFP (His-SUMO-Snx3-mGFP) (natural protein)
chain: MPREFKSFGSTEKSLLSKGHGEPSYSEIYAEPENFLEIEVHNPKTHIPNGMDSKGMFTDYEIICRTNLPSFHKRVSKVRRRYSDFEFFRKCLIKEISMLNHPKVMVPHLPGKILLSNRFSNEVIEERRQGLNTWMQSVAGHPLLQSGSKVLVRFIEAEKFVG

Biological target: RFP-tagged cargo selection complex (Vps35, Vps26, Vps29-RFP) (S. cerevisiae, UniProt P34110;P40335;P38759)
Experiment: recruitment to giant unilamellar vesicles

RFP-tagged cargo selection complex (Vps35, Vps26, Vps29-RFP), sequence (P34110 whole entry, chain 1 of 3): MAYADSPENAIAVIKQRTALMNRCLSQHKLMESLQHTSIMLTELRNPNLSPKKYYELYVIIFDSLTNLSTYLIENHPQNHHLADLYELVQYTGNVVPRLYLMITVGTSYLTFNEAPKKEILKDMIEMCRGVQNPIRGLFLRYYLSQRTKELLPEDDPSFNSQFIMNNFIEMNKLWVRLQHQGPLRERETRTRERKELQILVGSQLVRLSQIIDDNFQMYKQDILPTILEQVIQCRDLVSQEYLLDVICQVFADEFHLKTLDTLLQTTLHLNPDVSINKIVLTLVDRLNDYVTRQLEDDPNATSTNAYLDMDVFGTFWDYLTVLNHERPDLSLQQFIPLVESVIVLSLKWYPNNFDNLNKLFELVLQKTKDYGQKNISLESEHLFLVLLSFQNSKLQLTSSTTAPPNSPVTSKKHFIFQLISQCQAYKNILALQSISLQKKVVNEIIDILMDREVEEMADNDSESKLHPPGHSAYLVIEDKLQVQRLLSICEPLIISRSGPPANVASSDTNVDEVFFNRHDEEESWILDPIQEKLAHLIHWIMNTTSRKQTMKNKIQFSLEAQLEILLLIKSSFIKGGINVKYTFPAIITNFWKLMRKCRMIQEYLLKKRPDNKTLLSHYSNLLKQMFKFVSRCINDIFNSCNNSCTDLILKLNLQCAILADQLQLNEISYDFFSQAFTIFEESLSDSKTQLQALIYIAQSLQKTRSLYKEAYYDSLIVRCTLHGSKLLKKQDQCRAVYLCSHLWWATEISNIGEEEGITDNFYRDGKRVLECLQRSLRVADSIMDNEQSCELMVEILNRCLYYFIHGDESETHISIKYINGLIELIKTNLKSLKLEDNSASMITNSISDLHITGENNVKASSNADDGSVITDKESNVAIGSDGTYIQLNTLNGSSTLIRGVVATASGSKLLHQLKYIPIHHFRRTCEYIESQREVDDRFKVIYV
RFP-tagged cargo selection complex (Vps35, Vps26, Vps29-RFP), sequence (P40335 whole entry, chain 2 of 3): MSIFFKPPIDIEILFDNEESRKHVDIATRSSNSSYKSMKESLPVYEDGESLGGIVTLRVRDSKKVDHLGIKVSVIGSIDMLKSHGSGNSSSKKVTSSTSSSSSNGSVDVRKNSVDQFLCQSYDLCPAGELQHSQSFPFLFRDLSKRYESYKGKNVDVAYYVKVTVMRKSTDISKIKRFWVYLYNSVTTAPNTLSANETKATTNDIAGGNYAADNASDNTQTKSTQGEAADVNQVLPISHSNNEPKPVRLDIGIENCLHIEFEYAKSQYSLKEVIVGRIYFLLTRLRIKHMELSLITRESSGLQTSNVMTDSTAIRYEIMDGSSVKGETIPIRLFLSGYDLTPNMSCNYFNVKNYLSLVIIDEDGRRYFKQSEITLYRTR
RFP-tagged cargo selection complex (Vps35, Vps26, Vps29-RFP), sequence (P38759 whole entry, chain 3 of 3): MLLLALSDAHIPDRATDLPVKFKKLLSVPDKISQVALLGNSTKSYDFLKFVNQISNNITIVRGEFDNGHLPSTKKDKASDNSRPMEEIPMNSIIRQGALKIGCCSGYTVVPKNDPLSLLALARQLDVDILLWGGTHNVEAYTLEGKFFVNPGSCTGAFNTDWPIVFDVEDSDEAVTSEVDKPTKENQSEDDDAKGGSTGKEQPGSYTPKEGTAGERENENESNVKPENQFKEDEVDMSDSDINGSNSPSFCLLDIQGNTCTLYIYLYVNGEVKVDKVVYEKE

Binding result, binds:
B1
B2
B3
